These results are taken from the supplement of paper PMC10567573.

The labels stand for the following.
B1: RAB40B (parent)
chain: YSLTTSSTHKRSSLRKVKLVRPPQ
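Further: lentivirally expressed fusions sorted by FACS into six bins by GFP to DsRed ratio, PSI derived from sequencing read proportions per bin multiplied by bin number.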

The variants in this series derive from B1. The series is described as follows: protein stability index of a GFP-peptide fusion (GPS, HEK-293T) (PSI 1-6); higher = more stable. As to conditions: c terminus: a fixed tail appended.
In the case of YSLTTSSTHKRSSLRKVKLVDPPQ, the protein stability index is 3.19.
The same measure for YSLTTSSTHKRSSLRKVKLVEPPQ: 3.41; for YSLTTSSTHKRSSLRKVKLVAPPQ: 3.15.
As to YSLTTSSTHKRSSLRKVKLVFPPQ, the protein stability index worked out at 2.17.
To YSLTTSSTHKRSSLRKVKLVCPPQ belongs 2.91; to YSLTTSSTHKRSMLRKVKLVRPPQ, 2.47; to YSLTTSSTHKRSILRKVKLVRPPQ, 2.74.
To YSLTTSSTHKRSCLRKVKLVRPPQ belongs 3.01.
The same measure for YSLTTSSTHKRSHLRKVKLVRPPQ: 3.18; for YSLTTSSTHKRSWLRKVKLVRPPQ: 1.69.
For YSLTTSSTHKRSTLRKVKLVRPPQ, the protein stability index was 2.4.
The same measure for YSLTTSSTHKRSQLRKVKLVRPPQ: 3.35.
On to YSLTTSSTHKRSPLRKVKLVRPPQ, for which the protein stability index is 3.4.
As to YSLTTSSTHKRSYLRKVKLVRPPQ, the protein stability index stood at 2.53.
YSLTTSSTHKRSGLRKVKLVRPPQ: the protein stability index turned out to be 2.86.
With YSLTTSSTHKRSVLRKVKLVRPPQ, the protein stability index amounted to 3.06.
With YSLTTSSTHKRSFLRKVKLVRPPQ, the protein stability index was determined as 2.12.
YSLTTSSTHKRSRLRKVKLVRPPQ: the protein stability index amounted to 3.4.
To YSLTTSSTHKRSKLRKVKLVRPPQ belongs 3.49.
To YSLTTSSTHKRSLLRKVKLVRPPQ belongs 2.45.
The same measure for YSLTTSSTHKRSDLRKVKLVRPPQ: 2.58; for YSLTTSSTHKRSALRKVKLVRPPQ: 3.25.
For the variant YSLTTSSTHKRSELRKVKLVRPPQ, the protein stability index turned out to be 3.21.
The same measure for YSLTTSSTHKRSNLRKVKLVRPPQ: 3.21.
For the variant YSLTTSSTHKRSSTRKVKLVRPPQ, the protein stability index turned out to be 3.87.
YSLTTSSTHKRSSWRKVKLVRPPQ: the protein stability index is 2.38.
The same measure for YSLTTSSTHKRSSHRKVKLVRPPQ: 3.46; for YSLTTSSTHKRSSKRKVKLVRPPQ: 3.37; for YSLTTSSTHKRSSIRKVKLVRPPQ: 3.37.
As for YSLTTSSTHKRSSNRKVKLVRPPQ, the protein stability index turned out to be 3.77.
To YSLTTSSTHKRSSDRKVKLVRPPQ belongs 3.83; to YSLTTSSTHKRSSSRKVKLVRPPQ, 3.5.
As for YSLTTSSTHKRSSVRKVKLVRPPQ, the protein stability index was found to be 3.25.
To YSLTTSSTHKRSSGRKVKLVRPPQ belongs 3.79; to YSLTTSSTHKRSSARKVKLVRPPQ, 3.68.
To YSLTTSSTHKRSSPRKVKLVRPPQ belongs 3.86; to YSLTTSSTHKRSSCRKVKLVRPPQ, 2.6; to YSLTTSSTHKRSSERKVKLVRPPQ, 3.82.
For YSLTTSSTHKRSSQRKVKLVRPPQ, the protein stability index turned out to be 3.98.
As to YSLTTSSTHKRSSMRKVKLVRPPQ, the protein stability index was 2.64.
Take YSLTTSSTHKRSSYRKVKLVRPPQ: the protein stability index stood at 3.06.
The same measure for YSLTTSSTHKRSSFRKVKLVRPPQ: 2.62; for YSLTTSSTHKRSSRRKVKLVRPPQ: 3.69.
Consider YSLTTSSTHKRSSLRKVKLTRPPQ, for which the protein stability index was found to be 3.25.
The same measure for YSLTTSSTHKRSSLRKVKLFRPPQ: 2.67; for YSLTTSSTHKRSSLRKVKLCRPPQ: 3.25; for YSLTTSSTHKRSSLRKVKLSRPPQ: 3.35.
To YSLTTSSTHKRSSLRKVKLLRPPQ belongs 2.71.
To YSLTTSSTHKRSSLRKVKLIRPPQ belongs 2.48; to YSLTTSSTHKRSSLRKVKLPRPPQ, 3.56; to YSLTTSSTHKRSSLRKVKLHRPPQ, 2.92.
Regarding YSLTTSSTHKRSSLRKVKLNRPPQ, the protein stability index amounted to 2.85.
The same measure for YSLTTSSTHKRSSLRKVKLGRPPQ: 2.71; for YSLTTSSTHKRSSLRKVKLARPPQ: 3.54; for YSLTTSSTHKRSSLRKVKLMRPPQ: 2.79.
As for YSLTTSSTHKRSSLRKVKLQRPPQ, the protein stability index is 3.09.
For YSLTTSSTHKRSSLRKVKLYRPPQ, the protein stability index worked out at 2.85.
For YSLTTSSTHKRSSLRKVKLKRPPQ, the protein stability index is 3.7.
As to YSLTTSSTHKRSSLRKVKLERPPQ, the protein stability index is 3.56.
The same measure for YSLTTSSTHKRSSLRKVKLDRPPQ: 3.66.
Turning to YSLTTSSTHKRSSLRKVKLRRPPQ, the protein stability index was 3.09.
In the case of YSLTTSSTHKRSSLRKVKLWRPPQ, the protein stability index worked out at 2.22.
In the case of YSLTTSSTHKRNSLRKVKLVRPPQ, the protein stability index was 3.16.
To YSLTTSSTHKRVSLRKVKLVRPPQ belongs 2.57; to YSLTTSSTHKRQSLRKVKLVRPPQ, 3.71.
With YSLTTSSTHKRRSLRKVKLVRPPQ, the protein stability index worked out at 3.32.
In the case of YSLTTSSTHKRESLRKVKLVRPPQ, the protein stability index is 3.07.
Consider YSLTTSSTHKRCSLRKVKLVRPPQ, for which the protein stability index was determined as 2.41.
YSLTTSSTHKRISLRKVKLVRPPQ: the protein stability index stood at 2.36.
As to YSLTTSSTHKRYSLRKVKLVRPPQ, the protein stability index was 2.85.
Take YSLTTSSTHKRDSLRKVKLVRPPQ: the protein stability index came to 3.71.
To YSLTTSSTHKRKSLRKVKLVRPPQ belongs 3.83.
To YSLTTSSTHKRPSLRKVKLVRPPQ belongs 3.15; to YSLTTSSTHKRHSLRKVKLVRPPQ, 3.16.
On to YSLTTSSTHKRGSLRKVKLVRPPQ, for which the protein stability index is 3.36.
To YSLTTSSTHKRASLRKVKLVRPPQ belongs 2.97; to YSLTTSSTHKRWSLRKVKLVRPPQ, 2.23; to YSLTTSSTHKRMSLRKVKLVRPPQ, 2.63.
As to YSLTTSSTHKRLSLRKVKLVRPPQ, the protein stability index was 2.33.
The same measure for YSLTTSSTHKRFSLRKVKLVRPPQ: 2.17; for YSLTTSSTHKRTSLRKVKLVRPPQ: 3.07; for YSLTTSSTHKRSSLRKEKLVRPPQ: 3.5.
Regarding YSLTTSSTHKRSSLRKCKLVRPPQ, the protein stability index came to 2.91.
The same measure for YSLTTSSTHKRSSLRKYKLVRPPQ: 2.98; for YSLTTSSTHKRSSLRKSKLVRPPQ: 3.3; for YSLTTSSTHKRSSLRKIKLVRPPQ: 2.63.
Consider YSLTTSSTHKRSSLRKQKLVRPPQ, for which the protein stability index stood at 3.38.
To YSLTTSSTHKRSSLRKAKLVRPPQ belongs 3.28; to YSLTTSSTHKRSSLRKRKLVRPPQ, 4.01; to YSLTTSSTHKRSSLRKFKLVRPPQ, 2.67.
For YSLTTSSTHKRSSLRKDKLVRPPQ, the protein stability index is 3.33.
With YSLTTSSTHKRSSLRKMKLVRPPQ, the protein stability index is 2.75.
Consider YSLTTSSTHKRSSLRKHKLVRPPQ, for which the protein stability index amounted to 3.55.
For the variant YSLTTSSTHKRSSLRKKKLVRPPQ, the protein stability index stood at 3.47.
